Reference: patent US20250136696A1 (HARBOUR BIOMED SHANGHAI, published 2025)

T1: human B7-H7 on the cell surface (human, UniProt Q9UM44 23-414)
T1 construct: whole, on cells; also called hB7-H7; hu B7-H7
T1 sequence (looked up): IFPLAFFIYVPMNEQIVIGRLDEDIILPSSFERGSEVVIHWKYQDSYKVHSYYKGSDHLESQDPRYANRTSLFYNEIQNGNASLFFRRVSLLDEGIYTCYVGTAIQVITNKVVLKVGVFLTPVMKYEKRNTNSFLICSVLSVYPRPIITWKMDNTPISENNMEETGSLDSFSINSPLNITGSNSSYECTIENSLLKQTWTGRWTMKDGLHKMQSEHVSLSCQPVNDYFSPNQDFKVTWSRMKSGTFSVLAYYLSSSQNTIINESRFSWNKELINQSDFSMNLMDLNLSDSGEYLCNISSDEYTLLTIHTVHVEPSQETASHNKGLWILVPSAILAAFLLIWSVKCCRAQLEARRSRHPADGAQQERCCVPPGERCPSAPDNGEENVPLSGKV

T2: human B7-H7 recombinant protein (human, UniProt Q9UM44 23-344)
T2 construct: also called human B7-H7 protein
T2 sequence (looked up): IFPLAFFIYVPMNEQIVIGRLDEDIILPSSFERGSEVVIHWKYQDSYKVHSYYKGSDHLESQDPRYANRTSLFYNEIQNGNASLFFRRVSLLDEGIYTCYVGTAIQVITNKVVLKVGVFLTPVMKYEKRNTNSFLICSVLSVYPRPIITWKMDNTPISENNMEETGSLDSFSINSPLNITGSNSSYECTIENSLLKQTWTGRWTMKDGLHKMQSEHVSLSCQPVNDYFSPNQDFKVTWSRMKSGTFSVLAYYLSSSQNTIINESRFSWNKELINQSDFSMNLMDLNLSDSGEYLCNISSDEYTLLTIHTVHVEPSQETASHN

T3: biotinylated human B7-H7 protein (Acro Biosystems, B77-H82F5) (human, UniProt Q9UM44 23-344, biotinylated)
T3 construct: Bought soluble protein; also called biotin-B7H7 protein
T3 sequence (looked up): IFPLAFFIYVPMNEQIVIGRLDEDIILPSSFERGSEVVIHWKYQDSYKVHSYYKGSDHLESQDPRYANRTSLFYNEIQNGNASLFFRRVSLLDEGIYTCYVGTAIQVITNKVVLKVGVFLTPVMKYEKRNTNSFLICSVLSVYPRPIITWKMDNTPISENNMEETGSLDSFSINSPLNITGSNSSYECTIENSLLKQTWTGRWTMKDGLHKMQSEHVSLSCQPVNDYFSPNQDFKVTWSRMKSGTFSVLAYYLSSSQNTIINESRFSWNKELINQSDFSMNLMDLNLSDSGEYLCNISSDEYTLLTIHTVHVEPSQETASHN


Tests used:
[1] = molecular target: T1, human B7-H7 on the cell surface; test: flow cytometry, HEK-293/hu B7-H7 cells
Method: This example was intended to study the in vitro activity of H2L2 monoclonal antibodies against human B7-H7 in binding to human/cynomolgus monkey B7-H7. Since homologous molecules of B7-H7 were not present in mice, the detection was not performed. […] The cells were adjusted to a cell density of 1×10⁶ cells/mL, respectively. The cells were seeded in a 96-well V-bottom plate (Corning, #3894) at 100 μL/well, and the antibody to be tested at 2× final concentration with 3-fold concentration gradient dilution was then added at 100 μL/well. The cells were incubated at 4° C. for 2 hours in the dark. After the incubation, the cells were rinsed twice by adding pre-chilled PBS containing 2% BSA at 100 μl/well, and centrifuged at 500 g at 4° C. for 5 minutes, and the supernatant was discarded. […] The cells were washed twice by adding pre-chilled PBS containing 2% BSA at 100 μL/well, and centrifuged at 500 g at 4° C. for 5 minutes, and the supernatant was discarded. Finally, the cells were resuspended in pre-chilled PBS containing 2% BSA at 200 μL/well, and the fluorescence signal values were read using an ACEA Novocyte3000 flow cytometer.

[2] = molecular target: T2, human B7-H7 recombinant protein; test: BLI (Octet), antibody captured on AHC sensor, human B7-H7 in solution, 1:1 global fit
Method: The binding kinetics between antigen and antibody was analyzed using an Octet Red 96e (Fortebio) molecular interaction analyzer by biolayer interferometry (BLI) technology.
For determining the affinity of antibodies for antigens, the rotary speed of the sensor was set at 1000 rpm. AHC sensors (Fortebio, #18-5060) placed in one column were first equilibrated in a test buffer for 10 minutes, and then used to capture the anti-B7-H7 antibodies at a capture height of 0.7 nm; and after being equilibrated in the buffer for 120 s, the AHC sensors bound to human B7-H7 (concentrations: 50-3.125 nM and 0 nM) with 2-fold gradient dilution for 180 s and dissociated for 300 s. The AHC sensors were finally regenerated by immersing in a 10 mM glycine-hydrochloric acid solution with pH 1.5 to elute the protein bound to the sensors.
For data analysis using Octet Data Analysis software (Fortebio, version 11.0), 0 nM well was used as the reference well, reference subtraction was performed, “1:1 Global fitting” method was selected for data fitting, the kinetic parameters of the binding of the antigen to the antigen-binding protein were calculated, and the kₒₙ (1/Ms) value, kdis (1/s) value and KD (M) value were obtained.

[3] = molecular target: T3, biotinylated human B7-H7 protein (Acro …); test: BLI epitope competition on SA-captured biotinylated B7-H7; competitor (first antibody) PR003249
Method: Epitope competition experiments were performed on the anti-B7-H7 antibodies using the ForteBio Octet Red96e platform with the same experimental buffer as described above. […] After being equilibrated in a buffer for 120 s, the sensors were immersed in various antibodies diluted to 100 nM for 240 s, and the final signal of the antibody binding to B7-H7 was recorded as the 100% signal for that antibody. Second step, epitope competition experiment: B7-H7 was captured using SA sensors at a capture height of 0.25 nm. The sensors were immersed in a first antibody (concentration: 100 nM) for 240 s, then the SA sensors were immersed in a mixture of the first antibody and a second antibody (final concentration of both antibodies: 100 nM) for 240 s, and the difference in signals before and after immersing the sensors in the mixture of the two antibodies was recorded as the signal for that antibody as the second antibody. The inhibition rate was calculated by the following equation, […]

[4] = molecular target: T3, biotinylated human B7-H7 protein (Acro …); test: flow cytometry, blocking of biotinylated human B7-H7 binding to CHO-K1/KIR3DL3 cells
From the text: This example was intended to study the in vitro blocking activity of human anti-B7-H7 antibodies against the binding of human B7-H7 to its receptor KIR3DL3. A CHO-K1 cell (CHO-K1/KIR3DL3, Harbour BioMed US, Inc.) overexpressing human KIR3DL3 was used in experiments at the cellular level where human B7-H7/human KIR3DL3 binding was blocked. Briefly, the CHO-K1/KIR3DL3 cells were digested and resuspended in PBS containing 2% BSA. The cells were adjusted to a cell density of 1×10⁶ cells/mL. […] The cells were incubated at 4° C. for 1 hour in the dark. […] The cells were rinsed twice by adding pre-chilled PBS containing 2% BSA at 100 μL/well, and were centrifuged at 500 g at 4° C. for 5 minutes, and the supernatant was discarded. A fluorescent secondary antibody (PE Streptavidin, BD, Cat #: 554061, 1:200) was added at 100 μL/well, and the cells were incubated at 4° C. for 30 minutes in the dark. The cells were washed twice by adding pre-chilled PBS at 200 µL/well, and centrifuged at 500 g at 4° C. for 5 minutes, and the supernatant was discarded. Finally, the cells were resuspended in pre-chilled PBS at 200 μL/well, and the fluorescence signal values were read using an ACEA Novocyte3000 flow cytometer. IC50 was calculated.

| Binder | EC50 [1] [nM] | Maximum MFI [1] [MFI] | Kd [2] [nM] | koff [2] [s⁻¹] | kon [2] [M⁻¹ s⁻¹] | Competitive inhibition rate (%) [3] [%] | IC50 [4] [nM] | Maximum inhibition rate (%) [4] [%] |
| --- | --- | --- | --- | --- | --- | --- | --- | --- |
| PR003264 (antibody, human IgG1, kappa, Human IgG1; also called 77G10D3) heavy: not shown light: DIQLTQSPSFLSASVGDRVTITCRASQGISSYFAWYQQKPGKAPKLLIYAASTLQSGVPSRFSGSGSGTEFTLTISSLQPEDFATYYCQHLNRYPWTFGQGTKVEIKRTVAAPSVFIFPPSDEQLKSGTASVVCLLNNFYPREAKVQWKVDNALQSGNSQESVTEQDSKDSTYSLSSTLTLSKADYEKHKVYACEVTHQGLSSPVTKSFNRGEC | 1.68 | 756000 | 2.94 | 0.000115 | 39000 | 109 | 8.56 | 104 |
| PR003263 (antibody, human IgG1, kappa, V domains shown, Human IgG1; also called 77E6C4) VH: QVQLVESGGGVVQPGRSLRLSCAASGFTFSYYGLNWVRQAPGKGLEWVAVIWFDGTNKYYADSVKGRFTISRDDSKNTLYLQMNSLRAEDTAVYYCARGYGSGSYYNYVMDAWGQGASVTVSS VL: EIVMTQSPATLSVSPGERATLSCRASQSVSSNLAWYQQKPGQAPRLLIYGASTGATGIPARFSGSGSGTDFTLTISSLQSEDFAVYYCQQYYKWPLTFGGGTKVEIKR | 1.06 | 763000 | 5.44 | 0.000441 | 81100 | -0.324 | 6.23 | 103 |
| PR003254 (antibody, human IgG1, kappa, V domains shown, Human IgG1; also called 59D6D2) VH: QVQLVESGGGVVQPGRSLRLSCAASGFTFSSYGMHWVRQAPGKGLEWVADIWYNGNNKYYADSVKGRFTISRDNSKNTLYLQMNSLRAEDTALYYCARDGGYSYGPFDYWGQGTLVTVSS VL: not shown | 1.95 | 762000 | 32.3 | 0.00245 | 75600 | -5.96 | 7.18 | 97.2 |
| PR003262 (antibody, human IgG1, kappa, V domains shown, Human IgG1; also called 77D5A4) VH: QVQLVESGGGVVQPGRSLRLSCAASGFTFSRYGIHWVRQAPGKGLEWVAVIWYNGRNKYYVDSVKGRFTISRDNSKNTLYLQMNSLRAEDTAVYYCARDGGYSYGPFDYWGQGTLVTVSS VL: EIVMTQSPATLSVSPGERATLSCRASQSFSNNLAWYQQKPGQAPRLLIYGASTRATGIPARFSGSGSGTEFTLTISSLQSEDFAVYYCHQYNIWPLTFGGGTKVEIKR | 1.33 | 822000 | 1.55 | 0.000117 | 75500 | -2.6 | 9.93 | 105 |

Continued by falling IC50 [4], values first:

| EC50 [1] [nM] | Maximum MFI [1] [MFI] | Kd [2] [nM] | koff [2] [s⁻¹] | kon [2] [M⁻¹ s⁻¹] | Competitive inhibition rate (%) [3] [%] | IC50 [4] [nM] | Maximum inhibition rate (%) [4] [%] | Binder |
| --- | --- | --- | --- | --- | --- | --- | --- | --- |
|  |  |  |  |  |  | 8.77 | 99.9 | PR004263 (antibody, human IgG1, kappa, L234A L235A, Variant of PR003264; Human IgG1 with LALA mutation in Fc) heavy: not shown light: DIQLTQSPSFLSASVGDRVTITCRASQGISSYFAWYQQKPGKAPKLLIYAASTLQSGVPSRFSGSGSGTEFTLTISSLQPEDFATYYCQHLNRYPWTFGQGTKVEIKRTVAAPSVFIFPPSDEQLKSGTASVVCLLNNFYPREAKVQWKVDNALQSGNSQESVTEQDSKDSTYSLSSTLTLSKADYEKHKVYACEVTHQGLSSPVTKSFNRGEC |
|  |  |  |  |  |  | 8.51 | 96.2 | PR004260 (antibody, human IgG1, kappa, L234A L235A, Variant of PR003181; Human IgG1 with LALA mutation in Fc) heavy: not shown light: DIVMSQSPSSLAVSAGEKVTMSCKSSQSLLNSRTRKNQLAWYQQKPGQSPKLLIYWASTRESGVPDRFTGSGSGTDFTLTISSVQAEDLAVYYCKQSYNLRTFGGGTKLEIKRTVAAPSVFIFPPSDEQLKSGTASVVCLLNNFYPREAKVQWKVDNALQSGNSQESVTEQDSKDSTYSLSSTLTLSKADYEKHKVYACEVTHQGLSSPVTKSFNRGEC |
| 1.13 | 807000 | 1.68 | 0.000102 | 61100 | -3.18 | 6.46 | 106 | PR003260 (antibody, human IgG1, kappa, V domains shown, Human IgG1; also called 70F3B1) VH: QVQLVESGGGVVQPGRSLRLPCAASGFTFSRYGMHWVRQAPGKGLEWVADIWYDGSKKYYADSVKGRFTISRDNSKNTLYLQMNSLRAEDTAVYFCTRDGGYSYGPFDYWGQGTLVTVSS VL: EIVMTQSPATLSVSPGERATLSCRASQSVSSNLAWYQQKPGQAPRLLIYYASTRAPGIPARFSGSESGTEFTLTISSLQSEDFAVYYCQQYNIWPYTFGQGTKLEIKR |
| 1.07 | 813000 | 6.7 | 0.000632 | 94300 | -6.54 | 6.34 | 96.4 | PR003251 (antibody, human IgG1, kappa, V domains shown, Human IgG1; also called 29F2C8) VH: QVQLVESGGGVVQPGRSLRLSCAVSGFTFSRYGMHWVRQAPGKGLDWVAVIWYNGNNKYYTDSVKGRFTISRDNSKNTLFLQMNSLRAEDTAVYYCARDGAYSYGPFDYWGQGTLVTVSS VL: not shown |
